According to PMC2676576 (Structure (London, England : 1993), 2009):
Values belong to the binder of their own block, whether it stands above or below them.

Legend:
bovine ubiquitin = bovine ubiquitin (bovine, UniProt P0CG53 1-76); experiment: SPR
[1] = biological target: STAM(10-390) of the ΔCT construct (human, UniProt Q92783 10-390); experiment: AUC
Chain of STAM(10-390) of the ΔCT construct (Q92783 10-390, stated change not applied): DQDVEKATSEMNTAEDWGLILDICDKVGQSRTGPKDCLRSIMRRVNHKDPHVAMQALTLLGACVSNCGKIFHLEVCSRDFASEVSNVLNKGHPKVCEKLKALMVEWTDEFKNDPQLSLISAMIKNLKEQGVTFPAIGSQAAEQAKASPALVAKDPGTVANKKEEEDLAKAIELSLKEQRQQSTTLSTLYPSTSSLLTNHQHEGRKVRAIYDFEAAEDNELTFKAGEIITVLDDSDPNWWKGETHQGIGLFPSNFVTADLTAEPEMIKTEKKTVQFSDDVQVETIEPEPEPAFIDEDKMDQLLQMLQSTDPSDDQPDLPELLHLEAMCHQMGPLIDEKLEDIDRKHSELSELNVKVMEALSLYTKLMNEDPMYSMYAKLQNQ

Kd (bovine ubiquitin): 157 µM
B1: his-tagged STAM VHS domain (residues 1-143) (domain or fragment)
chain: not shown

stoichiometry N [1]: 1 Hrs:STAM
B2: Hrs(1-557) of the ΔCT construct (domain or fragment, human, UniProt O14964 1-557, looked up)
chain: MGRGSGTFERLLDKATSQLLLETDWESILQICDLIRQGDTQAKYAVNSIKKKVNDKNPHVALYALEVMESVVKNCGQTVHDEVANKQTMEELKDLLKRQVEVNVRNKILYLIQAWAHAFRNEPKYKVVQDTYQIMKVEGHVFPEFKESDAMFAAERAPDWVDAEECHRCRVQFGVMTRKHHCRACGQIFCGKCSSKYSTIPKFGIEKEVRVCEPCYEQLNRKAEGKATSTTELPPEYLTSPLSQQSQLPPKRDETALQEEEELQLALALSQSEAEEKERLRQKSTYTSYPKAEPMPSASSAPPASSLYSSPVNSSAPLAEDIDPELARYLNRNYWEKKQEEARKSPTPSAPVPLTEPAAQPGEGHAAPTNVVENPLPETDSQPIPPSGGPFSEPQFHNGESEESHEQFLKALQNAVTTFVNRMKSNHMRGRSITNDSAVLSLFQSINGMHPQLLELLNQLDERRLYYEGLQDKLAQIRDARGALSALREEHREKLRRAAEEAERQRQIQLAQKLEIMRQKKQEYLEVQRQLAIQRLQEQEKERQMRLEQQKQTVQMR
